Assay results as given in PMC8026080, “Functional regulation of the structure-specific endonuclease FEN1 by the human cytomegalovirus protein IE1 suggests a role for the re-initiation of stalled viral replication forks” (PLoS Pathogens, 2021).

Tests used:
FLAG-FEN1 (full length) [1] = biological target: FLAG-FEN1 (full length) (UniProt P39748)
FLAG-FEN1 (full length) [2] = biological target: FLAG-FEN1 (full length) (UniProt P39748 1-380); assay: cell-based or functional assay
Sequence of FLAG-FEN1 (full length) (UniProt P39748 1-380) (P39748 whole entry): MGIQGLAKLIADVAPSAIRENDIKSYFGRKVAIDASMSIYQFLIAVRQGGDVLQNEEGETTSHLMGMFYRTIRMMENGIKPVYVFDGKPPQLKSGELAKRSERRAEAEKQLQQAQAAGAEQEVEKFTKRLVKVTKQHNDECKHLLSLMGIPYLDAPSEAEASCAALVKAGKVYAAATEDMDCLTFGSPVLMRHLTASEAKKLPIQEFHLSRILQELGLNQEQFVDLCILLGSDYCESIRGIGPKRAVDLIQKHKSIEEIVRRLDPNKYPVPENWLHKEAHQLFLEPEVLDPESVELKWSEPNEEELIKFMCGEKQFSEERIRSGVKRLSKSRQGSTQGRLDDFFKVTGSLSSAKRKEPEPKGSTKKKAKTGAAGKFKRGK

Sequence of FLAG-FEN1 (full length) (UniProt P39748) (P39748 whole entry): as above

| Molecule | normalized pFEN1 (Ser187)/FEN1 ratio by densitometry of Western blots, 293T cells transfected with FLAG-FEN1 and untagged IE1 wt (FEN1 alone set to 1) (FLAG-FEN1 (full length) [1]) | normalized pFEN1 (Ser187)/FEN1 ratio by densitometry of Western blots, 293T cells transfected with FLAG-FEN1 and full-length IE1 5x mut (FEN1 alone set to 1) (FLAG-FEN1 (full length) [2]) [ratio] |
| --- | --- | --- |
| HCMV immediate early protein 1 (IE1) expressed in AD169-infected cells (natural protein) | 2.4 | – |
| Myc-IE1 1–382 5x mut (domain or fragment, human cytomegalovirus, UniProt P13202 1-382, looked up) MESSAKRKMDPDNPDEGPSSKVPRPETPVTKATTFLQTMLRKEVNSQLSLGDPLFPELAEESLKTFEQVTEDCNENPEKDVLAELVKQIKVRVDMVRHRIKEHMLKKYTQTEEKFTGAFNMMGGCLQNALDILDKVHEPFEEMKCIGLTMQSMYENYIVPEDKREMWMACIKELHDVSKGAANKLGGALQAKARAKKDELRRKMMYMCYRNIEFFTKNSAFPATTNGCSQAMAALQALPQCSPDEIMAYAQKIFKILDEERDKVLTHIDHIFMDILTTCVETMCAEYKVTSDACMATMYGGISLLSEFCAVLCCYVLEETSVMLAKRPLITKPEVISVMKRRIEEICMKVFAQYILGADPLRVCSPSVDDLRAIAEESDEEE | – | 1.5 |
